Experimental findings from article PMC2289016 are described below.

Test [1] addresses rabbit skeletal muscle actin (rabbit) (UniProt P68135). The test is described as follows: actin elongation rate at the barbed end.
For test [2] the target is unchanged. The test is described as follows: ultrafiltration.

What is called Kd is a measure of binding affinity in units of concentration. Take “human platelet profilin (from UniProt P07737 1-140) (natural protein)”: the results for the Kd in test [1] and in test [2] were 22.5 µM and 2.3 µM, respectively.
